The record followed here is the NTF2 design screens of Basanta et al. (2020).

A short description of this series: protease stability score; higher = more stable; yeast display proteolysis, trypsin and chymotrypsin.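 Also: log10 excess protease needed over predicted unfolded state with 0 meaning unfolded.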

In the case of “DEHVIKNFLRVVRTNNEDSFVKMADKDAEITIGDKRYHGREDVHKAAKQRKDAFDEVSIVDYRIDGDKIKVRQSATVNGKKLDFEYTMVLHNGRVRTLDMKARDEEMERRLREIID”, the protease stability score stood at 0.023.

Consider “DEHVKETFHSFLHAQTTGDPDKMHKLFDKDARVRYGDKVYHGRETLMRIFHKLRRNIRVDVKFEDIKVDNGKLHAEADMTINHDGKPRQKKVIIELVLHNGKIKQFNQELRG”, for which the protease stability score amounted to 0.723.

In turn, “DEHVLELAKELFDALSFGSPEDVHRNADKNARFRIGDTEIKGMEQYVETVHKIKRELRLSITVKSMTAHNGDADIKADAVFNHNGTPRRVKIEVTMHVHNGKAVSVDIQFRK” came in with a protease stability score of 0.848.

For the sequence “DEHVLHELERAFRDNDFERLQEQFDENARVEIGDKTYHGKNQVQQAMNDFKTAYDHYQLKTFDIHGEKVFADVKATVNGHDVEFEWEMTASNGRIKKLHIQARDEEVKEQLKRALS”, the protease stability score was determined as 0.109.

“DEHVLRQVEEWLHNVQTGDEDRLIELVDPNARVEIGDKVIHGMHRMARDLRRKRENMDINIRDYRVQVRGDKARVDIEEQVHHNGRPNSRRFEIQVDADNGRVKQIKWQSES” showed a protease stability score of 0.125.

As to “DEHVNKLAHRLLEAIEEGNPEMFKELADEDVHFQVGDKSYHGMEDYANSIVEKLRQMHFEIKSYSFRNEPGRATLDLRVQMEHDGQPRESKNTVDVKAKNGRVKRVKFREKR”, the protease stability score was determined as 0.155.

For “DEHVQQALERYWDAVTTNNPEQAVNNVDPNVEIVVGDKTLTGREDVHKHIKDVKDKQNVEIKSMQLRVHNGRVRARFKFEVNHNGEPTTDVVVVEAEVKNGKIQRVEARRDK”, the protease stability score came to 0.899.

In turn, “DEHVSRNFENMLRAIKSGNEEEIRELIDKNVRVQVGDKEIHGREEAVKDFKRRHEEIRFNLEVKRIEVRGNKVDVDAEASMTVNGKPYEWHVNIEVRARNGRIKYLNYRVPEEQVKKVES” displayed a protease stability score of 0.177.

In turn, “DEHVSRNLLRVLKLMHKGNFEEVVNNMDPNARIKVGDKEVHGREKEQTKNRKKEKHMELKVDDYRFRDNNGQVEAEVDQKFTHDGQPRSERFKFRVEAHNGRIKKQSQKEDR” registered a protease stability score of 0.007.

Turning to “DEKAKDLFSKVMEAIRTGDEQKIRDNADPNVSVRYGDRNLTGREKVAETNYKIKRHMRIKIDHVRMEVHNGEAEVNVKRVITINGRPTRDTYRLIVVAQGDKLKSVVWKFSEEQRKRLEQ”, the protease stability score was determined as 0.411.

Consider “DEKAKHMVERFFTALTTGDEQKLRDNVDPNAKFHYGDKRISGMEDNARTLVEEQKEIRFQYDRMHLDAKGDTIDVKLKYIADVNGKPIDVHVDVKFQFQNGRVQSISERIDPRVEKEMHS”, for which the protease stability score came to 0.162.

As to “DEKALEFIRKFEEVMKKGDHDTLKEMMDPNARFQYGDKTVHGREHAADWAKRVRDQMRVRIISVKYTARGNKATIQVRNQVNFNGRPLHDHFEVSFDMHNGKIKHASRTLSEEQRQRLEQ”, the protease stability score stood at 0.062.

“DEKALENLRRVNDARKTNDEDRIKKLLDKDARVQVGDRQIKGRENVSDTLRKLEEHMRIEIKDYRVDVQNGRAKLEVHWQFEVNGKPRKVTYDWEAEANNGKIQTMHAQFTEEDKRKRKQ”: the protease stability score was -0.039.

Turning to “DEKALNHANKMLEAYETGNEKQVADQVDKDVRVEIGDKFYHGRENLRERMKKLMKEARFRITVKSVKVQGDQAKIDAEVTHTHNGQPRKRHMSMTVDVQGDKIKQVHVQYHG”, the protease stability score worked out at 0.523.

Turning to “DEKALQLLQRIMEAWQKGDPQQVVDNIDKDARIHIGDKHLHGREDARRVVEQEMTEARLSFDVKHVSVQGDKVKVSFHAQLDTNGRPKTYRASATMNASNGKAKQMDVKEDK”, the protease stability score was -0.232.

Sequence “DEKALRQFEKFMEAIKNGDEEKVVQLVDPNATVRYGDKKVEGREQIKDQMKKLHEEMRIQVNSVDVEDHNGRAHVRIDVIQEHNGTPDRAQLRANMSASNGRIKDLEFTKTK” had a protease stability score of -0.148.

In turn, “DEKALRSAEEWVRQLNENNEDTLMKLADPNAEFSIGDKTVHGREQLREWIKKTLDKMHVHVKDVKYTDSGDKAQIDIDRVNEHNGRPDEDNVEMTMHLDNGTIHSVDVRKKS” showed a protease stability score of -0.303.

For “DEKALRVAEEAIKAVQTGDPKKFATMADENARVRIGDKEVKGRENQVQLMKDWKHHMRWEQDVKSVTANGDKVEVKFEQVSETNGKPDHDTWNVHFTAQNGEVKSMTMTSNK”, the protease stability score was -0.504.

Consider “DEKAMDKVRKVKEIEDEGDSDEFNKMFDPNARFNVGDKSVHGMETYVDQLSKELKRLKRSVRIKSMHAEGNRVDMTVKYEVDVNGRPYRAQVHIIYTFHNGHFSHVTYRLDPQSQREFQK”, for which the protease stability score is 0.017.

Sequence “DEKANTQAKRLLDVMNSGDEEKILRQMDEDVEVVIGDTKVKGREDIRRWMQKVLKELRVVYDLKHLRAHNGKIDIKAKMHNNHNGQPNSNDVIIIAKIHNGRFKHFEVHTQS” gave a protease stability score of 0.804.

For the sequence “DEKAQDILKEIANAIRTNNPSQLKNLLDPNAKVKIGDKEFHGMDQLQEDVQRKKEKMRVDFDVRRVEVQGETVHARARVVIHHNGKPATMTYSMIVHIKNGRVRELQVNISETDKEKQKS”, the protease stability score was 1.62.

Turning to “DEKAQTRVQDYLRALQNGDHKRLREYMDENVHLRVGDKEVHGRTTAANEIVKEVRNQEMSMSIKRVRASENHVQMEVVVQVEHNGKPREFSFQLNFKLENGQAKEIKYKIDPTVLKNIRK”, the protease stability score was found to be 0.507.

As for “DEKARKILKKMMHALEKGDEDKVRHLLDPNVKVRIGDKDITGREEVARNIFKTLQSMRVKIDRFHVEAKGDKVRAHQTAKAQHNGQPRRYQATVTARIHNGHFQRIDIQVDK”, the protease stability score amounted to 0.944.

Sequence “DEKDAEKVMRELAKAAVNGNYKKAVQLVKEDVQVEYMDQRTHGKEKLKEMLKKFTDLGAEVEYKEVHVKGDTVTVKVEAKMDGKKVKFKVQYVVTDHRLDKVTVKYSEEAYKVIKHG” had a protease stability score of 0.525.

“DEKDAREWVKDREQNDFDQISRMMDENVKLEYGNKEVHGRERVNTELKKEEETADHVSIDRVEVEEGRAVIDAVVRFNGKDFKMVVTVSMENGKVKYIRDRFTDEQLEEDFVKQFN” registered a protease stability score of 0.728.

“DEKDEAVKLLEHLMEALRRGDEDHARSLADPNVRADIGDRDYSGRNKVAQEWIRRATQADHLELRIRDVRVDGNEVTLEAELSMKVNGETHSDTVHFQFEKHNGRVVLVHVQFK” displayed a protease stability score of 1.56.

Sequence “DEKDETVVRKWLEAQHTGNPEEAKHQVDKNVDIRVGDHKVTGRHQIMHNLEQRKKSARFELQLTHLSASNGKVTIQIDVRINYNGRPFTDTLHATAKIKNGQLHSFSVDVDEEYLKKVKS” returned a protease stability score of -0.272.

Sequence “DEKDHARHLVKRLLHAIRTGNPDEAMRLAPPNVRVSYGDTQIHGREQFHKWVKTIRDTVDRQRFTIVNVTVHNGQANVSIRYRLNHNGKDDKNEMTARFVEHNGQLKLVSMSRS” gave a protease stability score of 0.522.

As for “DEKDHENVARNLVTAIVQGDPDRFKELLDKNVKFKYGETDVKGKDNAERVMKDFIKEADQVRVQTLSFHGEHIVINMVADVNGEEQRFQIRAKVHNGRVKEMVWHSR”, the protease stability score worked out at 1.5.

Consider “DEKDKARKLNDRVREVMETGDPRKFTELADPNARYIIGDKEFHGTENITKYAKTLRDQVDHVDVKVDHVNVQGNKVVADMKFTAEKNGSRLHYRMIVVAVIQGDNVNAQQVHFK”, for which the protease stability score was determined as 1.18.

The sequence “DEKDKARRMAETIDKLAERNDFEELAKNADPDAKVTVGDKTFHGEENLVKHLQEERKRIDQVRIEVKDVKVQGDEIRINAKYEATHNGRRVDQQVRVIVEVHNGRLVISEMQYE” showed a protease stability score of 0.979.

As to “DEKDKATKMMETIKQAWDRNNPQQVASQFDKDAHIRVGDKMIHGHEQLKEFVQDVLDTYDHIKLTVTSVKQHNGRVVIVVQVHLEHNGRNDTRHYVVIIEVDNGHIRIKTMVDK”, the protease stability score is 1.16.

In the case of “DEKDKDVADELRKAYHTGDHNRLREMVDKDVKFQVGDQDYHGRETFMKLNHTERNEIRIEIQSIRVHVHNGRVTVKQVVVREHNGRPTRMQQVLTIDAHNGKIKKMFIKDDQ”, the protease stability score is 0.069.

The sequence “DEKDLEELAKDVIEAYQDGDEQRLRNNFDKDARWHIGDKTFHGRERNVRHLVEEAKRVDHIHVTTMEVQGNTVRMVLRMNHNGKSDHVDIQITFENGRAQSVTVTKP” registered a protease stability score of 0.369.

On to “DEKDMEQQDRVFRHGNEKKLEDLVDEDARVEVGNRRYHGREQVVRFFQQQVKQVDHRTIRSVKLTGDKFDAVLQVVINGQTYTYRFKAKVHNGKVKVLRVEFTDPQREKEFEKQLD”, for which the protease stability score turned out to be 0.206.

Sequence “DEKDNKTLHKIIRHGDWKKLQDLADENASVDIGNKKFHGRREVSKAMERLREKVDSVQYHSITVEGNSARIVYNLEVNGNRVKVQMKFSMHNGHLQEVVIRATNEEDSKKIDKQLG” showed a protease stability score of 0.724.

In turn, “DEKDNKTYADKVAEMLKHNDPRTARELVDPNAKVQVGDSEVHGREQIENLIKTWNEQVDHVEIKKYRVEGDKVEITFVAESNGKRTHFKVVLKVRNGRATHMTIKRK” registered a protease stability score of 0.157.

In turn, “DEKDQEQILRELAEIMKSGDEHEMENLADENVKVKIGDKTLKGKEQFRHQLKRERDRVDHLKILDMEAQGDRFIIRWQEEFNGQTRRMQVDIHIKNGKIKSAEYRHQ” gave a protease stability score of 0.579.

The sequence “DEKDQTRKAEKAARIFQHGNPDDVREMADEDVKVQIGDNRINGRHNLDTEVKELRDRVDDAKIEDFRASGNTIVLHIRFVVDGVDVHITIHINYHNGKAKRIDVKYTDERQKRRQDS” came in with a protease stability score of 0.739.

Consider “DEKDVEKIMKKMDETFVKGNTEELEKLGKEDVEVQYGDKREKGPDAIRKVLEKVKQLGIKVEYKEVHIKGDTATVKVEADMAGQTARFEVTYVVRGNRVDRVVVKYDEEAQKVIKHG”, for which the protease stability score is 0.772.

The sequence “DEKDVEKLQRLIKTGNEDHIANEADPNVQVTIGDDVIHGREEAVRQIQKWQRQVDHVEIKSMESQGEKVHVRRVLTVNGKNFEFTLQAEMHNGTLTHFDIQFRSEEDNKRFLKVVS” showed a protease stability score of 0.32.

“DEKDVERVLEAIKTNNRSEIRNQADPNARARVGDKKLHGMEDAAHKFAKFLDRADNHEVKDVSVDGDRATMDVKVRVDGEDVRFVVKFQVKNGRITHLEVEATSDHVDRRAEQAMK” yielded a protease stability score of 0.581.

For the sequence “DEKDVHLARKYYQNFRDGDPDKLKRMADKDAKMSVGDKHLHGMEKIATDLQREHEEMHIDRKIDDVKVNGDKAIVHLKVNINVDGKPTSDSVTVIFKFENGKITTLEYRFDPDKQRKINK”, the protease stability score is 0.294.

In turn, “DEKDVKTAVKDFNTGSFDRFKDLADKDVTARIGNHTVKGHENFQHMMKNLKDRIDHFDVDSMTIKGNEAQMEYRFEINGHDIVVILRVDIHNGRIKHMEVEFRNEEQKKRFDDNQG” gave a protease stability score of 0.945.

For the sequence “DEKDVRILEEYVNAWNTNDPDTLNNLADPNARFKIGNKEFQGRDTLDRLAKQLRKEMRVTVHDVHAKDDDGRVDAKVDAVMHYNGKPNRDTFHFDAKVHNGRIRELNVQFDEKRKKKVDS”, the protease stability score is -0.065.

Take “DEKDVRRLSKYLRALQKNDPDEVRRMADPNAKAEVGDKRIHGRDEFSKHVETRRRQMRITIEHYEIKNQGDKVELNVVRRSEHNGKPRRNSVRATYVFDNGKIHSYSVKHVP”: the protease stability score is -0.133.

As to “DEKEAEHVSRLVRENDFQTLRDQADKDARVRIGDREVHGRERLRSQLHKLERRIDSLEVHRVNNHPNHFHVDVVITVNGQKVTFRLNIHVHNGRIKSIEIEFTDEDQKRNMNEVFS”, the protease stability score is -0.081.
